The data set can be described thus: label from the status in PepcDB records.
For the sequence “NGQAITLASKHYGSVNSAADLKGMVLGIPFEYSVHALLLRDYLVSNAVDPIADLELRLLRPADMVAQLTVEGIDGFIGPGPFNERAISNGSGRIWLLTKQLWDKHPCCAVAMAKEWKAEHPTAAQGVLNALEEASAILSNPA”, the protein production entry is listed as “failed”.

Turning to “NILFGISDTQECYNAIKFAVKLAHSLKEVRFTLLHVSMEVFIYSESGMMDYGQTEALEEEKAKALLKQFEDAFKKENIECESVLKSGDLIDVVLDMAKDYDLLLIGASESNLLYRLFISHQNSLVEQSSIPVVIAK”, the protein production result is “failed”.

Consider “NKIPTTMAFRTVTDVDNAVNGLYDLMSGSGYYGAAMFAYGDMKGDDMQSSEESGVCNTCYMFNHRPNSLNAGSLWGRPFYILREAWNILNAIAEGKIESGDEKKLNALKGETMAVIALCQFDLTRCFGYPYTKDKGASLGAPLIDHLVGTYENPPRSTVAQAYDFIIETLEEAVTLMSEEKNNGRMNKYAARALLARIYLYHDDNRKAFDLADQLIKDADTSGSYALYPHEKYVAAWSVEAKFGSESFFEIANSVDDTPGRDSWGYLLNWYGYQKGFVTQKYAEQMLADPGDVRGHLLEENKYAGKTVWWLYKLRGTDLKTAPLECNNVVLRLSEVYLIAAEAGCKLGGDAAVQGLGYLNEIVKRGNPDNEVTMADYTLDRVLDERSKELVGEGHRFFDLLRNGKTIVRKGGYHLPSVDEEVDWDFYKCVLPIPEDQFIFSPEMEQNPGYPKN”, for which the protein production result is reported as “not failed”.

As to “NLLDDAVKRISEDPPCKCPTKFCVERLSQGRYRVGEKILFIRMLHNKHVMVRVGGGWETFAGYLLKHDPCRMLQISRVDGKTSP”, the protein production entry is recorded as “not failed”.

Regarding “NMRQVLKTDRLVLEPQSMARFDQWFAMERQRDEAGHRDLTEDQAWLRLCARQGMWDAYACGFYYLLDPVSGEMRGEAGFQFRRRGFGPGFDNHPEAAWAVASAHQGRGLAAEAMQALLAHHDRSSGRQRVVALIARSNLPSLRLAERLGFR”, the protein production entry is “failed”.

Turning to “NMTISDIQHAPDYALLSNDEQQLCIQLKILPKPYLVLKEVMFRELLKTGGNLSKSACRELLNIDPIKANRIYDFFQSQNWM”, the protein production entry was “not failed”.

As for “NNDDDGTNKAQEIAGKYEGYSIGNCAMFTDYVMGEKSVATIVPNEDGTINVTYDSGSGEFKLNNIKVTSKTFEGSGQVELSMNDKPAGAKDFTLTGSIDEQQKLTLKVNVPSVMGGLTIEFIQGTLPISYHVSGTYNKEANLSVSVGSTTYPDITDCKVSIKRSSDDTVELTLKGLSNLNSSQTGRAMNLGDFTVTDVKVTSTDNSIFKIEGSINTTDTNNTPITGTLSGTVSNSETNITFTFKPGAMPIDITAMFKGKK”, the protein production result is reported as “not failed”.

Take “NNINVITDQMGNLDIKSNDNINQNTQNSNVASDLNLLTQNKYLENILMMNTYGVNYDHLFLPQNVAYLAAQQLSNNIMNNRNQINAAYTSQQYPNQSIPIKNIYDQSHLKYQQNSSSWRPPLNNGNIYDGVKSNPMGLHILQNGIDLYTNVDSNSVTSAINFDKYDSIPVSVTGPDYSATNVIENFDELKLDPTIRNNILLASYQRPTPIQKNAIPAILEHRDIMACAQTGSGKTAAFLIPIINHLVCQDLNQQRYSKTAYPKCLILAPTRELAIQILSESQKFSLNTPLRSCVVYGGADTHSQIREVQMGCHLLVATPGRLVDFIEKNKISLEFCKYIVLDEADRMLDMGFEPQIRKIIEESNMPSGINRQTLMFSATFPKEIQKLAADFLYNYIFMTVGRVGSTSDSIKQEIIYMTDVEKLNYLKNIFNTTAPNTLILIFVETKKGADSLARFLLSKGYPVSSIHGDRSQVEREAALSMFRNGQCPILVATAVAARGLDIPNVKHVINYDLPSDIEEYVHRIGRTGRLGNHGRATSFYVDKNNNIAIDLVDLLKEANQIVPQWLSALADELKRNSTMGSNNKRHNQRRYKNGNFGGRDYRQGPSNVNMNSGVNPDYFISGSVAPRHAKLNNGNYFPRSNELHDQHQKQNNNNNQVISNTFHTGISASHLIPGYATFNRQQAPLHFIPHQTNNTQFLSSSGQMALYNRMQNSGHMAPNQRFPNEPIHHQQEQLPITYNFSKNLPYLGQSYSGHNNNNNNNNNTSKINDSDSCYFGNKTPR”: the protein production entry is on record as “not failed”.

For the sequence “NNNSKINLFCVPSAGSSASIFSAWDKTSAENLKVIALEYPGHGRKIQQSLSHDPDFLAHQFSLEILAYGNTPYVLFGHSVGASLIWKIEEKLKLLHADHNLILKIVSARPSPLFQNLIHNYSHLTDEQMIKELRLYNNFPDEILNNASALNFFLPIIKNDFILSDNMLKKPIFKSSVPLMSVYGEADPYIKNHNIMESWSTYTNKWLGAHQFSGDHFYFLDTTILQKMLHLIQEKIY”, the protein production result is “failed”.

As to “NNVIGALCVFQDISELVGIKELNERFQKILETSHDLICFIDENRKISYINPTYEKCLNIKSEDVLGKDLMKISPD”, the protein production result is reported as “failed”.

Values taken from a protein production outcome set (Wang et al. 2014).
